In patent US20150301040A1:

What was measured:
[1] = target: human IGF1R-luciferase fusion protein (IGF1R-Luc) (human); test: bridge assay: immobilized IGF1R-PGA14tag, antibody at 49 ng/ml, IGF1R-Luc
[2] = target: human IGF1R-luciferase fusion protein (IGF1R-Luc) (human); test: bridge assay: immobilized IGF1R-PGA14tag, antibody at 12 ng/ml, IGF1R-Luc
[3] = target: human IGF1R-luciferase fusion protein (IGF1R-Luc) (human); test: bridge assay: immobilized IGF1R-PGA14tag, antibody at 0.8 ng/ml, IGF1R-Luc
[4] = target: human IGF1R-luciferase fusion protein (IGF1R-Luc) (human); test: bridge assay: immobilized IGF1R-PGA14tag, antibody at 0.2 ng/ml, IGF1R-Luc
[5] = target: human IGF1R-luciferase fusion protein (IGF1R-Luc) (human); test: bridge assay: immobilized IGF1R-PGA14tag, antibody at 50000 ng/ml, IGF1R-Luc
[6] = target: human IGF1R-luciferase fusion protein (IGF1R-Luc) (human); test: bridge assay: immobilized IGF1R-PGA14tag, antibody at 195 ng/ml, IGF1R-Luc
[7] = target: human IGF1R-luciferase fusion protein (IGF1R-Luc) (human); test: bridge assay: immobilized IGF1R-PGA14tag, antibody at 3125 ng/ml, IGF1R-Luc
[8] = target: human IGF1R-luciferase fusion protein (IGF1R-Luc) (human); test: bridge assay: immobilized IGF1R-PGA14tag, antibody at 781 ng/ml, IGF1R-Luc
[9] = target: human IGF1R-luciferase fusion protein (IGF1R-Luc) (human); test: bridge assay: immobilized IGF1R-PGA14tag, antibody at 12500 ng/ml, IGF1R-Luc
[10] = target: human IGF1R-luciferase fusion protein (IGF1R-Luc) (human); test: bridge assay: immobilized IGF1R-PGA14tag, antibody at 3 ng/ml, IGF1R-Luc
[11] = target: human IGF1R-luciferase fusion protein (IGF1R-Luc) (human); test: bridge assay: immobilized IGF1R-PGA14tag, antibody, IGF1R-Luc
[12] = target: human IGF1R-luciferase fusion protein (IGF1R-Luc) (human); test: bridge assay: immobilized IGF1R-PGA14tag, antibody at 0.05 ng/ml, IGF1R-Luc

Chain of human IGF1R-luciferase fusion protein (IGF1R-Luc) (human) (chain, as listed by the source limits assumed): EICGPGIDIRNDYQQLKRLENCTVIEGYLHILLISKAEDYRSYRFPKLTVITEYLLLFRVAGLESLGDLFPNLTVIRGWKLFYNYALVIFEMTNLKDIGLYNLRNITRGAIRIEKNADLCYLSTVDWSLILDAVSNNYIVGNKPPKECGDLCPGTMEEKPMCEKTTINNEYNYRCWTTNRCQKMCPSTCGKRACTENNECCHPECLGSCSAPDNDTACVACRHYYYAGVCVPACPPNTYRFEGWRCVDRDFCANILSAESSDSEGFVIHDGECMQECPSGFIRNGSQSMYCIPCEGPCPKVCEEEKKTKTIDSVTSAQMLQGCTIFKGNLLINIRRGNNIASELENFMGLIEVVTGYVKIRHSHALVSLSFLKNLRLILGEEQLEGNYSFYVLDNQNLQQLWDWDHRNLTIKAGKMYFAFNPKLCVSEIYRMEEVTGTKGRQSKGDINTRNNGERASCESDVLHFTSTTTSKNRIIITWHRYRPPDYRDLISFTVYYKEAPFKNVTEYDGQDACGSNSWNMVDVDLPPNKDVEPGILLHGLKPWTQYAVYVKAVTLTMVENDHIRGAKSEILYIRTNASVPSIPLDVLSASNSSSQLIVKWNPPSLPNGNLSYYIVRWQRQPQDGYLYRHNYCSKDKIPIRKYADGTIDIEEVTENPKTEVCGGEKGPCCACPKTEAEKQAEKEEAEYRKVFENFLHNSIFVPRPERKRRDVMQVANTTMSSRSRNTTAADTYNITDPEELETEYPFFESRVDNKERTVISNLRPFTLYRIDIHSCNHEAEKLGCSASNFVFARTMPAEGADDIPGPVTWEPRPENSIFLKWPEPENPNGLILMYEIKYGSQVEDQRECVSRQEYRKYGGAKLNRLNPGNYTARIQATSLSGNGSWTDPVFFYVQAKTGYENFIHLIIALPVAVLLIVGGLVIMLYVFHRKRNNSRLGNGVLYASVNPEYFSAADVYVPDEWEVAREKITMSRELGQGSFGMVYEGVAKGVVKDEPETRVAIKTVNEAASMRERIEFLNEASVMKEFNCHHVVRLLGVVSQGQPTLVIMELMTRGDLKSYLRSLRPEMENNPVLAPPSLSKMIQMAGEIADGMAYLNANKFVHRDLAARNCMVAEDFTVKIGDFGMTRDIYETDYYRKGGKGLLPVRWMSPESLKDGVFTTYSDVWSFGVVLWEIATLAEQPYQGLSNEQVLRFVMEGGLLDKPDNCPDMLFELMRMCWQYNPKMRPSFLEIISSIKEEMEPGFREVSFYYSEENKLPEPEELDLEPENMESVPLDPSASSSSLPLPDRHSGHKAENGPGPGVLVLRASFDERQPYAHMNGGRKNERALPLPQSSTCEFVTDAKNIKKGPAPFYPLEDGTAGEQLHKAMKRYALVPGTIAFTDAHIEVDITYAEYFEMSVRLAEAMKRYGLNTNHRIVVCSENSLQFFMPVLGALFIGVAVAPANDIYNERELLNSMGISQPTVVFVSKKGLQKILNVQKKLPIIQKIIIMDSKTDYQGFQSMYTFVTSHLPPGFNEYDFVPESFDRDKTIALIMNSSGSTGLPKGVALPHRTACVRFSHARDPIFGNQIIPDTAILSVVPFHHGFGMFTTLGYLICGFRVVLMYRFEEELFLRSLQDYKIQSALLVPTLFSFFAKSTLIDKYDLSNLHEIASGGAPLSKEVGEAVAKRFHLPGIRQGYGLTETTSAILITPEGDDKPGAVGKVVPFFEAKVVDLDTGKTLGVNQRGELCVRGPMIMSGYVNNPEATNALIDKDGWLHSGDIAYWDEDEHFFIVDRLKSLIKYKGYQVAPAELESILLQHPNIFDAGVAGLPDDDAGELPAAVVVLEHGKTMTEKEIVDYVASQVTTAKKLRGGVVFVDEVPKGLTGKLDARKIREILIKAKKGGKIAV

Monoclonal antibody to the extracellular domain of IGF1R (anti-IGF1R clone#24-75, Millipore, USA)
RLU bound [1]: 88900 RLU
RLU bound [2]: 27000 RLU
RLU bound [3]: 8860 RLU
RLU bound [4]: 5900 RLU
RLU bound [5]: 805000 RLU
RLU bound [6]: 235000 RLU
RLU bound [7]: 627000 RLU
RLU bound [8]: 476000 RLU
RLU bound [9]: 767000 RLU
RLU bound [10]: 11800 RLU
detection limit [11]: 0.2 ng/mL
RLU bound [12]: 5370 RLU
